From paper PMC10540216, “Activity Guided Azide-methyllysine Photo-trapping for Substrate Profiling of Lysine Demethylases” (Journal of the American Chemical Society, 2023)

System: KDM4A-I71AzF
Test: CASI: photo-crosslinking with HEK293T cell extracts, StrepTactin enrichment and LC-MS/MS proteomics;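 also: lysates from HEK293T cells pretreated with a KDM4 inhibitor to raise proteome methylation, affinity-purified after ±UV, gel-resolved, trypsin-digested, with exclusive unique peptides per protein averaged per condition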
Type: binding, human
Details: sheet "Final results but with 0.01"

Row | Molecule | Fold change (+UV/-UV)
1 | ADAS_HUMAN (protein, UniProt O00116 59-658, looked up) Alkyldihydroxyacetonephosphate …: KARRAASAATAAPTATPAAQESGTIPKKRQEVMKWNGWGYNDSKFIFNKKGQIELTGKRYPLSGMGLPTFKEWIQNTLGVNVEHKTTSKASLNPSDTPPSVVNEDFLHDLKETNISYSQEADDRVFRAHGHCLHEIFLLREGMFERIPDIVLWPTCHDDVVKIVNLACKYNLCIIPIGGGTSVSYGLMCPADETRTIISLDTSQMNRILWVDENNLTAHVEAGITGQELERQLKESGYCTGHEPDSLEFSTVGGWVSTRASGMKKNIYGNIEDLVVHIKMVTPRGIIEKSCQGPRMSTGPDIHHFIMGSEGTLGVITEATIKIRPVPEYQKYGSVAFPNFEQGVACLREIAKQRCAPASIRLMDNKQFQFGHALKPQVSSIFTSFLDGLKKFYITKFKGFDPNQLSVATLLFEGDREKVLQHEKQVYDIAAKFGGLAAGEDNGQRGYLLTYVIAYIRDLALEYYVLGESFETSAPWDRVVDLCRNVKERITRECKEKGVQFAPFSTCRVTQTYDAGACIYFYFAFNYRGISDPLTVFEQTEAAAREEILANGGSLSHHHGVGKLRKQWLKESISDVGFGMLKSVKEYVDPNNIFGNRNLL | 200
2 | MPP6_HUMAN (protein, UniProt Q99547 1-160, looked up) M-phase phosphoprotein 6: MAAERKTRLSKNLLRMKFMQRGLDSETKKQLEEEEKKIISEEHWYLDLPELKEKESFIIEEQSFLLCEDLLYGRMSFRGFNPEVEKLMLQMNAKHKAEEVEDETVELDVSDEEMARRYETLVGTIGKKFARKRDHANYEEDENGDITPIKAKKMFLKPQD | 200
3 | CKAP4_HUMAN (protein, UniProt Q07065 1-602, looked up) Cytoskeleton-associated …: MPSAKQRGSKGGHGAASPSEKGAHPSGGADDVAKKPPPAPQQPPPPPAPHPQQHPQQHPQNQAHGKGGHRGGGGGGGKSSSSSSASAAAAAAAASSSASCSRRLGRALNFLFYLALVAAAAFSGWCVHHVLEEVQQVRRSHQDFSRQREELGQGLQGVEQKVQSLQATFGTFESILRSSQHKQDLTEKAVKQGESEVSRISEVLQKLQNEILKDLSDGIHVVKDARERDFTSLENTVEERLTELTKSINDNIAIFTEVQKRSQKEINDMKAKVASLEESEGNKQDLKALKEAVKEIQTSAKSREWDMEALRSTLQTMESDIYTEVRELVSLKQEQQAFKEAADTERLALQALTEKLLRSEESVSRLPEEIRRLEEELRQLKSDSHGPKEDGGFRHSEAFEALQQKSQGLDSRLQHVEDGVLSMQVASARQTESLESLLSKSQEHEQRLAALQGRLEGLGSSEADQDGLASTVRSLGETQLVLYGDVEELKRSVGELPSTVESLQKVQEQVHTLLSQDQAQAARLPPQDFLDRLSSLDNLKASVSQVEADLKMLRTAVDSLVAYSVKIETNENNLESAKGLLDDLRNDLDRLFVKVEKIHEKV | 200
4 | PDC6I_HUMAN (protein, UniProt Q8WUM4 2-868, looked up) Programmed cell death …: ATFISVQLKKTSEVDLAKPLVKFIQQTYPSGGEEQAQYCRAAEELSKLRRAAVGRPLDKHEGALETLLRYYDQICSIEPKFPFSENQICLTFTWKDAFDKGSLFGGSVKLALASLGYEKSCVLFNCAALASQIAAEQNLDNDEGLKIAAKHYQFASGAFLHIKETVLSALSREPTVDISPDTVGTLSLIMLAQAQEVFFLKATRDKMKDAIIAKLANQAADYFGDAFKQCQYKDTLPKEVFPVLAAKHCIMQANAEYHQSILAKQQKKFGEEIARLQHAAELIKTVASRYDEYVNVKDFSDKINRALAAAKKDNDFIYHDRVPDLKDLDPIGKATLVKSTPVNVPISQKFTDLFEKMVPVSVQQSLAAYNQRKADLVNRSIAQMREATTLANGVLASLNLPAAIEDVSGDTVPQSILTKSRSVIEQGGIQTVDQLIKELPELLQRNREILDESLRLLDEEEATDNDLRAKFKERWQRTPSNELYKPLRAEGTNFRTVLDKAVQADGQVKECYQSHRDTIVLLCKPEPELNAAIPSANPAKTMQGSEVVNVLKSLLSNLDEVKKEREGLENDLKSVNFDMTSKFLTALAQDGVINEEALSVTELDRVYGGLTTKVQESLKKQEGLLKNIQVSHQEFSKMKQSNNEANLREEVLKNLATAYDNFVELVANLKEGTKFYNELTEILVRFQNKCSDIVFARKTERDELLKDLQQSIAREPSAPSIPTPAYQSSPAGGHAPTPPTPAPRTMPPTKPQPPARPPPPVLPANRAPSATAPSPVGAGTAAPAPSQTPGSAPPPQAQGPPYPTYPGYPGYCQMPMPMGYNPYAYGQYNMPYPPVYHQSPGQAPYPGPQQPSYPFPQPPQQSYYPQQ | 200
